This note sets out measurements from patent US20210403594A1 (IMMUNOGEN, published 2021).

One assay deals with T1, human EpCAM (CD326) (human, UniProt P16422 24-314).
T1 construct: whole, on cells; Antigen on the surface of the human cells used in flow cytometry and cytotoxicity assays; also called EpCAM on HSC2 cells; human-EpCAM expressing 300-19 cells
T1 sequence (looked up): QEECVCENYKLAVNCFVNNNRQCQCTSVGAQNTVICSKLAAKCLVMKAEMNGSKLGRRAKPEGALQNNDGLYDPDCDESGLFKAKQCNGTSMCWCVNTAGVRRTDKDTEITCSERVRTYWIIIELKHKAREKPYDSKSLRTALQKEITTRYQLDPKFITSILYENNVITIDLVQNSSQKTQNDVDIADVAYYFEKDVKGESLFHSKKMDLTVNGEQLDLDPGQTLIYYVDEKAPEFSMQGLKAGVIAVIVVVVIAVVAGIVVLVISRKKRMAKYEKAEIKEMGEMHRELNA
The assay is described as follows: flow cytometry on HSC2 cells; Geo Mean FL1 against concentration; Alexa Fluor Plus 488 goat anti-mouse IgG (Example 2).

The target of assay [1] is cynomolgus EpCAM (cynomolgus monkey). As to the kind of experiment: flow cytometry on cyno kidney epithelial cells; Geo Mean FL1 against concentration; Alexa Fluor Plus 488 goat anti-mouse IgG (Example 2).
cynomolgus EpCAM (cynomolgus monkey), sequence (Q1WER1 24-314): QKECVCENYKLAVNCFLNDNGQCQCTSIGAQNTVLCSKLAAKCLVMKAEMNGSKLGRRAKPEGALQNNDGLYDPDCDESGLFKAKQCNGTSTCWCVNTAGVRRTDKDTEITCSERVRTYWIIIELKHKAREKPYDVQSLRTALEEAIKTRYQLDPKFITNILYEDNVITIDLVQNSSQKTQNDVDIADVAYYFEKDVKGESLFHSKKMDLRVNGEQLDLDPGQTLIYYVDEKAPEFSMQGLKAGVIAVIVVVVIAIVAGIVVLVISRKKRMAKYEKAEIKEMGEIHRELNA

B1: mEpCAM23 (antibody, mouse IgG2b, kappa)
heavy: EVKLEESGPALVKPGASVRISCKASGYTFTNYYIHWVKQRPGQGLDYIGWIYPGNVYIQYNEKFKGKATLTADKSSSTAFMQLSSLTSEDSAVYFCARDGPWFAYWGQGTLVTVSSAKTTPPSVYPLAPGCGDTTGSSVTLGCLVKGYFPESVTVTWNSGSLSSSVHTFPALLQSGLYTMSSSVTVPSSTWPSQTVTCSVAHPASSTTVDKKLEPSGPISTINPCPPCKECHKCPAPNLEGGPSVFIFPPNIKDVLMISLTPKVTCVVVDVSEDDPDVRISWFVNNVEVHTAQTQTHREDYNSTIRVVSALPIQHQDWMSGKEFKCKVNNKDLPSPIERTISKIKGLVRAPQVYILPPPAEQLSRKDVSLTCLVVGFNPGDISVEWTSNGHTEENYKDTAPVLDSDGSYFIYSKLDIKTSKWEKTDSFSCNVRHEGLKNYYLKKTISRSPGK
light: DIVLTQTPFSNPVTLGTSASISCRSSKSLLHSDGFTYLYWFLQKPGQSPHLLIYQTSNLASGVPDRFSSSGSGTDFTLRISRVEAEDVGVYYCAQNLELPNTFGGGTKLEIKRADAAPTVSIFPPSSEQLTSGGASVVCFLNNFYPKDINVKWKIDGSERQNGVLNSWTDQDSKDSTYSMSSTLTLTKDEYERHNSYTCEATHKTSTSPIVKSFNRNEC
notes: also called muEpCAM-23; muEpCAM23
By Kd is commonly meant the constant that tells how readily two partners part at equilibrium. For B1, the Kd came to 0.38 nM with human EpCAM (CD326) and 0.79 nM in assay [1].
